In article PMC9295770 (Proceedings of the National Academy of Sciences of the …, 2022):

B1: CD3ζWT-GFP (wild-type murine CD3ζ-GFP fusion protein), transgenic mouse thymocytes (natural protein, UniProt P24161-1 22-164, looked up)
chain: QSFGLLDPKLCYLLDGILFIYGVIITALYLRAKFSRSAETAANLQDPNQLYNELNLGRREEYDVLEKKRARDPEMGGKQQRRRNPQEGVYNALQKDKMAEAYSEIGTKGERRRGKGHDGLYQGLSTATKDTYDALHMQTLAPR

Tests used:
[1] = target: CD3ζL19A-GFP (L19A murine CD3ζ-GFP fusion protein), transgenic mouse thymocytes (mouse); assay: immunoblot of whole lysates
[2] = target: the molecule itself; assay: immunoblot of whole lysates

Molecule	stoichiometry N [1]	stoichiometry N [2]
CD3ζL19A-GFP (L19A murine CD3ζ-GFP fusion protein), transgenic mouse thymocytes (natural protein)	2	–
B1	–	2
